The supplement of paper PMC10065799, “High-throughput profiling of sequence recognition by tyrosine kinases and SH2 domains using bacterial peptide display” (eLife, 2023)

Legend:
Jak2 = Jak2 (UniProt O60674); test: phosphorylation enrichment, bacterial display (enrichment ratio); higher = better substrate or ligand; peptides without Tyr show the background
FGFR3 = FGFR3 (UniProt P22607); test: as above
c-Src = test: as above
Fes = Fes (UniProt P07332); test: as above
Fyn = Fyn (UniProt P06241); test: as above
AncSZ = test: as above
Fer (mouse) = test: as above
MERTK = MERTK (UniProt Q12866); test: as above
EPHB2 = EPHB2 (UniProt P29323); test: as above
FGFR1 = FGFR1 (UniProt P11362); test: as above
EPHB1 = EPHB1 (UniProt P54762); test: as above
c-Abl (mouse) = test: as above
Hck = Hck (UniProt P08631); test: as above
Grb2 SH2 = Grb2 SH2 (UniProt P62993); test: SH2 binding enrichment of the phosphorylated peptide, bacterial display (enrichment ratio); higher = better substrate or ligand; peptides without Tyr show the background
SHP2-C SH2 = test: as above
c-Src SH2 = test: as above
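Throughout, for SH2 binding enrichment of the phosphorylated peptide, bacterial display: peptide library displayed on the E. coli surface as eCPX fusions, selected cells deep-sequenced, score is each peptide's frequency after selection divided by its frequency in the input.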
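Throughout, for phosphorylation enrichment, bacterial display: 11-residue human phosphosite peptides and single-mutation variants displayed on the E. coli surface, counted by deep sequencing, each peptide's frequency after selection divided by its frequency in the unselected input library; frequency after pTyr selection over input frequency; kinase dosed for 20-30% of maximal phosphorylation in three min.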

Sequence of FGFR3 (P22607 whole entry, looked up): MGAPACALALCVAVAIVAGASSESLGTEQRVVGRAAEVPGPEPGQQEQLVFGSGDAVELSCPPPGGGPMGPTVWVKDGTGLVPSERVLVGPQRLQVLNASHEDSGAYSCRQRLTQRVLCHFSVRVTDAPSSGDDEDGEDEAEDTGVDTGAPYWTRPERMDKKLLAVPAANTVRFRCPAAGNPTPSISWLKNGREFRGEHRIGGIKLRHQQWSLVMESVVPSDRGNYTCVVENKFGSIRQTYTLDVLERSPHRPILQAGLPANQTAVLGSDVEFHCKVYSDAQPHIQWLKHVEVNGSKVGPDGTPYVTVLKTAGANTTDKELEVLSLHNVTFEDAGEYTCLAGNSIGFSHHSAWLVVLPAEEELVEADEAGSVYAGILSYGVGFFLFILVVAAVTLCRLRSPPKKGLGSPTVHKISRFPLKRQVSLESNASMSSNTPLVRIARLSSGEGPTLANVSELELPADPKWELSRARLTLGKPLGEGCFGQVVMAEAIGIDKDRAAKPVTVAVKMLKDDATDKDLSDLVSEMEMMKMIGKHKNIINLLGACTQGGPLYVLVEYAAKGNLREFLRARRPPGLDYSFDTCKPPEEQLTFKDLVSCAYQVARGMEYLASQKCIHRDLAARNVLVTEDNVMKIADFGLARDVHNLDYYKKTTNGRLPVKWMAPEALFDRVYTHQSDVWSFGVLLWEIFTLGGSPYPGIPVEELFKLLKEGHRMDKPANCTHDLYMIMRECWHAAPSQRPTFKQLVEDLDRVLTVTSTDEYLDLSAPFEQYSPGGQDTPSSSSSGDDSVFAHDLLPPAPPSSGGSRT
Sequence of EPHB1 (P54762 whole entry, looked up): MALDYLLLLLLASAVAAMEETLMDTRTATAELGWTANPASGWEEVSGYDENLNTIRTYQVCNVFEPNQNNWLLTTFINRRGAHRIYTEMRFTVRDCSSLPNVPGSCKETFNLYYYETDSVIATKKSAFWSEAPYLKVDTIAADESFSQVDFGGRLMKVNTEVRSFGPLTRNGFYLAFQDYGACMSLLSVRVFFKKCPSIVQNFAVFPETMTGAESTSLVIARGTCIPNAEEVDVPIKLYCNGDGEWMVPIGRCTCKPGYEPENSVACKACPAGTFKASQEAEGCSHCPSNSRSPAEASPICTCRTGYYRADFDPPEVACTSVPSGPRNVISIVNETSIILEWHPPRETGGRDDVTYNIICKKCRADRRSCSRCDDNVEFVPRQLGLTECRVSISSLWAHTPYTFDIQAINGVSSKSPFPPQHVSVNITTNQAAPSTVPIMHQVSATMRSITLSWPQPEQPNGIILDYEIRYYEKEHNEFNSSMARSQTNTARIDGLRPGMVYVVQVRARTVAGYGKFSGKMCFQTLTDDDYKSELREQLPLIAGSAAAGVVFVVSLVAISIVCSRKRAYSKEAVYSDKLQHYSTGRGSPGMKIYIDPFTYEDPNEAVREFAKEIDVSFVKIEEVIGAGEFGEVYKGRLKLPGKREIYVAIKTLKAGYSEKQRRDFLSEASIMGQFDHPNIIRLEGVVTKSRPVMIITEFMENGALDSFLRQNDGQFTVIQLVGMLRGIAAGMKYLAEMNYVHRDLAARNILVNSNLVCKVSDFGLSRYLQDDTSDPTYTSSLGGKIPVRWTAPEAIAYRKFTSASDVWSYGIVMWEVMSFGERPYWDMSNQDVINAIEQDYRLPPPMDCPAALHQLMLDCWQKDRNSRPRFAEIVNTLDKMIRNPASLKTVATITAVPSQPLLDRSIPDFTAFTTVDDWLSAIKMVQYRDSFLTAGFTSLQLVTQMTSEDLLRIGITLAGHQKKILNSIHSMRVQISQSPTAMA
Sequence of EPHB2 (P29323 whole entry, looked up): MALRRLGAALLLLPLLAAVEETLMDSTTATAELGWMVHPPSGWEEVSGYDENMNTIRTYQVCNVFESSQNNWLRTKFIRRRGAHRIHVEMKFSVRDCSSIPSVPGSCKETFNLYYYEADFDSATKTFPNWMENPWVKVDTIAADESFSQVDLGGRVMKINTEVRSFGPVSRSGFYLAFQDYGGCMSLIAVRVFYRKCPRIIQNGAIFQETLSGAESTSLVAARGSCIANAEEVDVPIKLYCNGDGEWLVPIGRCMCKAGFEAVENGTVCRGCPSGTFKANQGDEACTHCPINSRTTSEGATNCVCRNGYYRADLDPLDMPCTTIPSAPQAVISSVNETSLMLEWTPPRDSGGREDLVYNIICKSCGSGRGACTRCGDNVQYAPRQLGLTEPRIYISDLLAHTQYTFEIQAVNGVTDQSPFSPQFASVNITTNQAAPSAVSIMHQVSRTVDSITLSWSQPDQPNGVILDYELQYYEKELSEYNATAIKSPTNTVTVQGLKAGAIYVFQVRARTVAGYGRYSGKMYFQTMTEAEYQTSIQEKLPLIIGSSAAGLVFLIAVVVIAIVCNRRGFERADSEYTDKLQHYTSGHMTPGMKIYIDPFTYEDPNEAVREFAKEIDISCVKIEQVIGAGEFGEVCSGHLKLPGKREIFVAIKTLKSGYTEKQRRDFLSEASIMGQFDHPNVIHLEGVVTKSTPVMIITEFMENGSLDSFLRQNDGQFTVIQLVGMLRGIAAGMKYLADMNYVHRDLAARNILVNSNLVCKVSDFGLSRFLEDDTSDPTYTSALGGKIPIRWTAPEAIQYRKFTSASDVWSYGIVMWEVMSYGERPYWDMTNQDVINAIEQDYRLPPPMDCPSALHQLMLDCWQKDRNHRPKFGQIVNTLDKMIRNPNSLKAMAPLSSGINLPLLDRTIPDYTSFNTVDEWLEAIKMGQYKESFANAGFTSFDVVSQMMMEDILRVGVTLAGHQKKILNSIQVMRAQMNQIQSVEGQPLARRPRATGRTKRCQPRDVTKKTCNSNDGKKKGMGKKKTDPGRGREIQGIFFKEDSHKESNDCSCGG
Sequence of FGFR1 (P11362 whole entry, looked up): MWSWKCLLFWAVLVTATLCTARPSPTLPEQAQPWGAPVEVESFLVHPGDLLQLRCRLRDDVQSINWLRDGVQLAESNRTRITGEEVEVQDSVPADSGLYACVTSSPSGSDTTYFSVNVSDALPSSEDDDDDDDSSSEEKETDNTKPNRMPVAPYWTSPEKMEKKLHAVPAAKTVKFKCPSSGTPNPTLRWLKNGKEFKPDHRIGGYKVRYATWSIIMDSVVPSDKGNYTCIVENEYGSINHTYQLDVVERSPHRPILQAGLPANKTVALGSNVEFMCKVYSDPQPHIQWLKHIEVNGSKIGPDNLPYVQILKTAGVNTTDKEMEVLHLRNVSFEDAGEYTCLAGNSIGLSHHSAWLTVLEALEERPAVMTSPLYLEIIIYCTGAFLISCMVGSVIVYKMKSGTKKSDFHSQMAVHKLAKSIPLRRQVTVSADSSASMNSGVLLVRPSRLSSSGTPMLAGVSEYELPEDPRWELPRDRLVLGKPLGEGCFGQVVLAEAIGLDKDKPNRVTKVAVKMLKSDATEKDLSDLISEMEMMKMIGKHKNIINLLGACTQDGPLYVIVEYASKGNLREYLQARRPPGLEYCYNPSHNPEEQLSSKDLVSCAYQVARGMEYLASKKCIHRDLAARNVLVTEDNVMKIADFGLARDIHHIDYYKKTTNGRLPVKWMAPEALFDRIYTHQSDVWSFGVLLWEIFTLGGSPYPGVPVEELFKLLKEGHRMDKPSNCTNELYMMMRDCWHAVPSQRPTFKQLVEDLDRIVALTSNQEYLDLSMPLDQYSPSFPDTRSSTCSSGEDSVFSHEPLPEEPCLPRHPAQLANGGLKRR
Sequence of Fes (P07332 whole entry, looked up): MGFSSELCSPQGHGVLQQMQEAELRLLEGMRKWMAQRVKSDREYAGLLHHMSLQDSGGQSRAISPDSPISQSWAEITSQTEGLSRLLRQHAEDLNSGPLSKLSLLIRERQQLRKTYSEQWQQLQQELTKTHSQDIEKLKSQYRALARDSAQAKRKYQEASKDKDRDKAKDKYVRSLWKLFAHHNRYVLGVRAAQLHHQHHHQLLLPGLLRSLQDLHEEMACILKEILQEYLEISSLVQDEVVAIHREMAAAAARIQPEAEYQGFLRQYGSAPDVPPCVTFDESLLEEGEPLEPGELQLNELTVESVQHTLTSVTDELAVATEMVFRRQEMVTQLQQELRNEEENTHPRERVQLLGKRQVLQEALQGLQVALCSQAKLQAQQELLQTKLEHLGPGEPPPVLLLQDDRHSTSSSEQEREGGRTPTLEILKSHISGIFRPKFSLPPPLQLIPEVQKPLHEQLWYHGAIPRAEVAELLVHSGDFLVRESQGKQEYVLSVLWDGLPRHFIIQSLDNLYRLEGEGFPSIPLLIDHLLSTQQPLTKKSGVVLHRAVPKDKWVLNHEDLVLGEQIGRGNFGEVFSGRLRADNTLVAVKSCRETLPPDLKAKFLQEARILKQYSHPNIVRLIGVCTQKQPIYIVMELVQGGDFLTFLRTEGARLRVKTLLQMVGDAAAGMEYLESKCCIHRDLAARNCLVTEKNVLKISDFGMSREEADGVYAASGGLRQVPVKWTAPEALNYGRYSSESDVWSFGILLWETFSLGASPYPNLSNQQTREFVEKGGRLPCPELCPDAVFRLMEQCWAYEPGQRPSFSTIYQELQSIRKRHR
Sequence of Hck (P08631 whole entry, looked up): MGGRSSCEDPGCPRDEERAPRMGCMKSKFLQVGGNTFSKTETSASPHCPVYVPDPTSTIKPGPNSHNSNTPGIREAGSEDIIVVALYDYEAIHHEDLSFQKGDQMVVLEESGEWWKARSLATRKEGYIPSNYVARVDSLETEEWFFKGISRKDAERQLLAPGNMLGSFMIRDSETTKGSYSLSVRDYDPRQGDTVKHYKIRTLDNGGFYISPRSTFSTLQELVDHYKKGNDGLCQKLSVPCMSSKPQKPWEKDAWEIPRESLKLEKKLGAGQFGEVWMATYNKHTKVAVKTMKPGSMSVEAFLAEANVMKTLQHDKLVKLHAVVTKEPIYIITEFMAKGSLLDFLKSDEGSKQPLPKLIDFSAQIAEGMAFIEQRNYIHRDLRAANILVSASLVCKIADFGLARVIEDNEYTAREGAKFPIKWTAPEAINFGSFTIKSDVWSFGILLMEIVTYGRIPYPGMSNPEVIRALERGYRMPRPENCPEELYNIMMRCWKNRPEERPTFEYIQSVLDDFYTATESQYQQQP

Sequence	SH2 binding enrichment (Grb2 SH2)	SH2 binding enrichment (SHP2-C SH2)	SH2 binding enrichment (c-Src SH2)	phosphorylation enrichment (Jak2)	phosphorylation enrichment (FGFR3)	phosphorylation enrichment (c-Src)	phosphorylation enrichment (Fes)	phosphorylation enrichment (Fyn)	phosphorylation enrichment (AncSZ)	phosphorylation enrichment (Fer (mouse))	phosphorylation enrichment (MERTK)	phosphorylation enrichment (EPHB2)	phosphorylation enrichment (FGFR1)	phosphorylation enrichment (EPHB1)	phosphorylation enrichment (c-Abl (mouse))	phosphorylation enrichment (Hck)
QTSTDYDIRFY [CSNK2A1_Y131_L128S]	0.707	0.625	0.36	1.47	1.04	0.785	1.86	0.981	1.46	0.844	0.869	1.36	1.08	1.22	1.2	0.89
QYPDIYAREEV [CRX_Y67_V66I]	0.687	0.299	0.552	2.02	1.41	1.54	2.14	1.84	3.09	1.29	1.48	1.02	1.23	1.63	2.12	2.6
QYQEKYKQVEQ [HCN4_Y531]	0.958	0.971	0.743	0.858	1.3	0.491	1.12	0.821	1.44	0.576	0.375	0.721	1.17	0.908	0.493	0.579
RAIGYYSATSK [FAM120A_Y328]	1.24	1.16	1.83	0.73	0.453	0.593	0.631	0.502	0.765	0.563	1.17	0.515	0.438	0.622	0.639	0.37
RARPPYTVAAD [ANKZF1_Y572]	1.27	1.14	0.933	0.58	0.458	0.349	0.591	0.35	0.551	0.443	0.418	0.378	0.39	0.4	0.466	0.45
RCLKDYGEFEV [GINS1_Y156]	0.979	0.888	0.685	1.45	0.82	1.19	1.13	0.677	1.1	1.16	0.524	0.626	0.399	0.5	1.12	0.635
RDLTDYLMKIL [ACTA1_Y190]	1.43	1.37	1.15	1.16	0.896	0.613	1.21	0.554	1.09	0.581	0.477	0.529	0.539	0.58	0.791	0.551
REEKNYKHKET [BCLAF1_Y459_L461H]	0.93	0.46	0.624	0.571	0.431	0.741	1.45	0.436	0.829	0.647	0.688	0.55	0.635	0.422	0.917	0.53
RETSLYKACER [ASB2_Y162_P160S]	1.14	0.799	0.857	1.31	0.558	0.939	0.954	0.481	1	0.762	0.719	0.609	0.548	0.59	0.85	0.9
RFLKDYGEFEV [GINS1_Y156_C152Y_YF]	1.26	0.749	0.43	1.13	0.877	1.07	1.39	0.85	1.04	0.63	0.778	0.569	0.582	0.497	0.835	0.695
RGDCMYASLLG [AR_Y269_P271S]	1.26	1.99	1.12	1.03	1.52	6	1.39	6.63	1.25	1.1	4.87	1.49	1.45	2.43	1.42	7.26
RHLREYQDLLN [DES_Y388]	1.25	0.872	2.29	0.807	0.641	0.41	1.19	0.483	0.93	0.533	0.491	1.12	0.61	0.621	0.888	0.464
RHTRSYDFTEG [FGF7_Y56_M59T_YF]	0.88	0.611	0.427	0.444	0.382	0.351	0.695	0.366	0.557	0.399	0.35	0.492	0.411	0.377	0.563	0.387
RIFDFYSARKT [STOX1_Y858_A863T_YF]	0.977	0.907	0.517	0.417	0.496	0.624	0.833	0.485	0.715	0.311	0.595	0.553	0.519	0.467	0.491	1.37
RIFDYYSARKA [STOX1_Y858]	1.48	0.648	0.469	1.16	0.612	1.1	1.28	0.713	0.959	0.7	0.582	0.656	0.614	0.499	1.08	0.792

Continued, in another order:

SH2 binding enrichment (Grb2 SH2)	SH2 binding enrichment (SHP2-C SH2)	SH2 binding enrichment (c-Src SH2)	Sequence	phosphorylation enrichment (Jak2)	phosphorylation enrichment (FGFR3)	phosphorylation enrichment (c-Src)	phosphorylation enrichment (Fes)	phosphorylation enrichment (Fyn)	phosphorylation enrichment (AncSZ)	phosphorylation enrichment (Fer (mouse))	phosphorylation enrichment (MERTK)	phosphorylation enrichment (EPHB2)	phosphorylation enrichment (FGFR1)	phosphorylation enrichment (EPHB1)	phosphorylation enrichment (c-Abl (mouse))	phosphorylation enrichment (Hck)
0.917	1.05	0.44	QTPVLYAMLYH [MPZ_Y220_D224Y]	1.89	4.53	3.4	1.43	4.4	1.1	8.03	8.33	6.54	5.59	9.9	2.58	5.44
0.945	0.752	0.883	QVKEQYQDVPM [PKP2_Y659_K654Q]	1.12	0.914	0.573	1.98	0.65	1.15	0.86	0.565	0.762	0.835	0.555	2.19	0.701
0.965	0.836	0.573	QVQQIYSDSDL [MIB1_Y376_R371Q]	1.05	0.932	5.36	1.88	6.18	1.3	7.33	4.04	2.35	0.85	1.49	1.09	3.84
1.13	0.725	0.409	RAQIRYAQEHD [NSD1_Y1987_R1984Q]	0.911	0.768	0.847	0.816	0.633	1.72	0.56	0.912	0.575	0.507	0.458	0.889	0.667
1.78	0.785	0.597	RELSWYRGQRP [HESX1_Y106_R109Q]	0.956	0.541	0.401	0.901	0.505	0.962	0.376	0.488	0.661	0.506	0.581	0.38	0.552
1.03	0.668	0.613	RFGKVYKAHLF [ROR2_Y488_G490A]	0.39	0.733	0.886	0.604	0.57	0.622	0.846	0.509	0.583	0.72	0.476	0.594	0.645
0.919	1.2	0.699	RFLERYIYNRQ [HLA-DPB1_Y57_E62Q]	0.796	0.805	0.768	1.06	0.813	1.01	0.655	0.732	0.907	0.854	1.04	0.811	0.786
0.67	1.17	0.593	RFLTRYIFNRE [HLA-DQB1_Y62_V59L_YF]	1.29	0.674	0.706	1.17	0.606	1	0.897	0.578	0.567	0.408	0.624	0.631	0.452
0.788	0.751	0.522	RGEAVYSRDCV [XPC_Y676]	1.01	1.01	2.34	1.2	2.95	0.997	0.472	0.857	0.655	0.718	0.764	0.692	2.93
0.821	0.512	0.494	RGVTRYIFNRE [HLA-DQB1_Y62_Y58G_YF]	1.74	1.27	1.38	1.85	0.982	2.22	0.886	1.59	0.766	0.757	1	1.34	1.08
1.03	0.906	0.536	RHYVYYYSYLL [PTEN_Y177_R173H]	3.46	6.42	2.18	2.26	1.59	1.89	1.37	5.71	2.13	7.03	2.69	1.35	2.49
0.93	0.815	0.535	RIAFQYGVTDL [MYBPC3_Y340]	1.47	1.08	0.879	1.28	0.522	1.41	0.558	0.514	0.627	0.45	0.709	0.992	0.647
1.03	0.629	0.577	RIDPDYMGRVR [IGSF9_Y81_V82M]	0.643	0.656	0.466	0.572	0.487	0.649	0.4	0.442	0.367	0.344	0.35	0.585	0.369
0.95	0.836	0.542	RKGGSYSQAAS [HLA-A_Y344_T345S]	0.401	0.567	0.741	0.625	0.537	0.599	0.294	0.656	0.491	0.523	0.498	0.738	0.38
